The text below walks through data of PMC8187593 (2021).

The experiment has as its target T1, cathepsin K mature active enzyme (Homo sapiens, UniProt P43235).
T1 chain: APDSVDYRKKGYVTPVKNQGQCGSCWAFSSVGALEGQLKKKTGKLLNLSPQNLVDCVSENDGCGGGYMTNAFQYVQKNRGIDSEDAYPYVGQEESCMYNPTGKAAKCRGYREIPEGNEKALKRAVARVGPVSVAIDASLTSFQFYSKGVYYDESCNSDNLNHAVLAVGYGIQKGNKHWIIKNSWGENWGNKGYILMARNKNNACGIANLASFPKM
Put plainly: SPR.

B1: vitronectin (hVN) (protein)
chain: DQESCKGRCTEGFNVDKKCQCDELCSYYQSCCTDYTAECKPQVTRGDVFTMPEDEYTVYDDGEEKNNATVHEQVGGPSLTSDLQAQSKGNPEQTPVLKPEEEAPAPEVGASKPEGIDSRPETLHPGRPQPPAEEELCSGKPFDAFTDLKNGSLFAFRGQYCYELDEKAVRPGYPKLIRDVWGIEGPIDAAFTRINCQGKTYLFKGSQYWRFEDGVLDPDYPRNISDGFDGIPDNVDAALALPAHSYSGRERVYFFKGKQYWEYQFQHQPSQEECEGSSLSAVFEHFAMMQRDSWEDIFELLFWGRTSAGTRQPQFISRDWHGVPGQVDAAMAGRIYISGMAPRPSLAKKQRFRHRNRKGYRSQRGHSRGRNQNSRRPSRATWLSLFSSEESNLGANNYDDYRMDWLVPATCEPIQSVFFFSGDKYYRVNLRTRRVDTVDPPYPRSIAQYWLGCPAPGHL
Usually Kd stands for the concentration at which binding is half-saturated. A high value points to a looser complex. Molecule B1 displayed a Kd of 1.99 nM.

B2: vitronectin (pVN) (protein)
chain: DQESCKGRCTDGFIAERKCQCDELCSYYQSCCTDYVAECKPQVTRGDVFLQPDDEYRAYDYHEETRHNTSVQEEQRIPVLLAKTEETPVLKPEEEAPPPGPQTDDLGVPEEELCSGKPFDAFTNLKNGSVFAFRGLYCYELDEKAVRPGYPKLIQDVWGIKGPIDAAFTRINCQGKTYLFKGSQYWRFDDGVLDPNYPREISEGFKGIPDDVDAALALPAHSYSGRERVYFFKGKQYWEYVFQQQPSREECEGSSPSDVFAHFALMQRDSWEDIFRLLFWSHSFGGAIEPRVISQDWLGLPEQVDAAMAGQIYISGSALKPSQPKMTKSARRSGKRYRSRRGRGRGRGHSRSQKSHRQSRSTWLPWFSSEETGPGGYNYDDYKMDWLVPATCEPIQSVYFFSGEEYYRVNLRTQRVDTVTPPYPRSIAQYWLGCPVPDQK
B2 showed a dissociation constant Kd of 4.2 nM.
